Experimental data: the nanobody polyreactivity screen of Harvey et al. (2022)

Assay: yeast display, Sf9 membrane polyspecificity reagent, FACS + sequencing; frameworks hold sequencing errors
In short: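 Nanobodies from a synthetic yeast display library (Saccharomyces cerevisiae BJ5465), induced 36–48 hours with galactose, were stained 1 hour at 4 °C with 10% biotinylated, detergent-solubilized Sf9 membrane reagent, enriched on streptavidin microbeads, then FACS-sorted. Anti-HA (expression) and streptavidin (reagent binding) fluorescence set low and high (top ~1%) gates. Polyreactivity labels come from the gate of origin. Genes were colony-PCR amplified, MiSeq 2 × 250 sequenced and filtered by CDR length.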

| Sequence | polyreactivity (PSR sort gate) |
| --- | --- |
| QVQLVESGGGLVQAGGSLRLSCAASGFTFIRNAMGWYRQAPGKERELVAAISKRGGSTNYADSVKGRFTISRDNAKTTVYLLMNSLKPEDTAVYYCAADVDTRSSSGYWGQGTQVTVSS | low polyreactivity |
| QVQLVESGGGLVQAGGSLRLSCAASGFTFIRYAMGWYRQAPGKERELVARITSGGSTYYADSVKGRFTISRDNAKNTVYLQMNSLKPEDTAVYYCNADKWYIIQGYYWPGYEYWGQGTQVTVSS | low polyreactivity |
| QVQLVESGGGLVQAGGSLRLSCAASGFTFIRYAMGWYSQAAGKDRELVARITSSGSSTYADSVKGRFTISRDKAKNTVYLQMNSLKPEDTAVYYCAAKVHTRRRFDYWGQGTQVTVSS | high polyreactivity |
| QVQLVESGGGLVQAGGSLRLSCAASGFTFISNAMGWYRKAPGKERELVAAISSSGGRTYYADSVKGRFTISRDNAKNTVYLQMNSLKPEDTAVYYCNADRSLLYSRKIEYDYWGQGTQVTVSS | low polyreactivity |
| QVQLVESGGGLVQAGGSLRLSCAASGFTFISYGMGWYRQAPGKEREFVAAISYSGTGTYYADSVKVRFTISRDNAKNTVYLQMNSLKPEDTAVYYCAVYSRDFRRYDYWGQGTQVTVSS | high polyreactivity |
| QVQLVESGGGLVQAGGSLRLSCAASGFTFIWYAMGWYRQAPGKETELVATISWNGGRTYYADSVKGRFTISRDNANNTVYLQMNSLKPEDTAVYYCAADQGVYRTYWFDYWGQGTQVAVSS | high polyreactivity |
| QVQLVESGGGLVQAGGSLRLSCAASGFTFIYYALGWYRQAPGKERELLATISYDGGSTYYSDSVKGRFTISRDNAKNTVYLQMNSLKPEDTAVYYCNADFADDKYYLFESELEYDYWGQGTQVTVSS | low polyreactivity |
| QVQLVESGGGLVQAGGSLRLSCAASGFTFIYYAMGWYRQAPGKERELVAAISRRGGSTYYADSVKGRFTISRDNAKNTVYLQMNSLKPEDTAVYYCAADYTSAILRSDYWGQGTQVTVSS | high polyreactivity |
| QVQLVESGGGLVQAGGSLRLSCAASGFTFIYYAMGWYRQAPGKERELVAGISSGGRTSYADSVKGRFTISRDNAKNTVYLQMNSLKPEDTAVYYCATPVSRFRRTEYGYYYWGQGTQVTVSS | high polyreactivity |
| QVQLVESGGGLVQAGGSLRLSCAASGFTFKFYAMGWYRQAPGKEREFVAAISHSGGRTYYADSVKGRFTISSDNAKNTVYLQLNILKPEDTAFYYCAAAEGGGLVTYDYWGQGTQVTVSS | low polyreactivity |
| QVQLVESGGGLVQAGGSLRLSCAASGFTFKGYTMGWYRQAPGKERELVAAISRSGGRTYYADSVKGRFTISRDNAKNTVYLQMNSLKPEDTAVYYCAAVIIGGHDYWGQGTQVTVSS | high polyreactivity |
| QVQLVESGGGLVQAGGSLRLSCAASGFTFKINGMGWYRQATGKEREFVATIRTSTGRTNYADSVKGRFTISRDNAKNTVYLQMNSLKPEDTAVYYCAATFKSGMDYWGQGTQVTVSS | high polyreactivity |
| QVQLVESGGGLVQAGGSLRLSCAASGFTFKKNAMGWYRQAPGKERELVAAIRSGTSTKYADSVKGRFTISRDNAKNTVYLQMNSLKPEDTAVYYCAAEEPEYLATWRNRRYDYWGQGTQVTVSS | low polyreactivity |
| QVQLVESGGGLVQAGGSLRLSCAASGFTFKSNAMGWYRQAPGKERELVAAISGSGGRTYYADSVKGRYTISRDTAKYTVYLQMNSLKPEDTAVYYCAADYPVRSYDYWGQGTQVTVSS | low polyreactivity |
| QVQLVESGGGLVQAGGSLRLSCAASGFTFKVYNAMGWYRQAPGKERELVAAISSSVGGTYYADSVKGRFTISRDYAKNTVYLQMNSLKPEDTAVYYCATDDFTYVVAKDGDYWGQGTQVTVSS | low polyreactivity |
| QVQLVESGGGLVQAGGSLRLSCAASGFTFKYNVMGWYIQAPGKERELVAAISSAGNTNYADSVKGRFTISRDNAKNTVYLQMNSLKPEDTAVYFCAKRRDTLYVGVEGYYWGQGTQVTVSS | high polyreactivity |
| QVQLVESGGGLVQAGGSLRLSCAASGFTFKYYAMGWYREAPGKERELVAAISLTGGSTYYADSVKGRFTISRDNAKNTVYFQMHSLIPEDTAVNYCNAVQGRQRGWEGPYGYWGQGTQVTVST | high polyreactivity |
| QVQLVESGGGLVQAGGSLRLSCAASGFTFKYYAMGWYRQAPGKERELVATITRSGGNTYYADSVKGRFTISRDNAKNTVYLQMNSLKPEDTAVYYCNTRRPGKYDYWGQGTQVTVSS | high polyreactivity |
| QVQLVESGGGLVQAGGSLRLSCAASGFTFKYYVMGWYRQAPGKERELVASISKRGGSTRYADSVKGRFTISRDNAKNTVYLQMNSLKPEDTAVYYCAARSKVHRWRKRYDYWGQGTQVSVSS | high polyreactivity |
| QVQLVESGGGLVQAGGSLRLSCAASGFTFLAYAMVWYRQAPGKERELVAAIRWSGGRTYYADSVKGRFTISRDNAKNTVYLQMNSLKPEDTAVYYCAADTRRVREYNYWGQGTQVTVSS | low polyreactivity |

| Sequence | polyreactivity (PSR sort gate) |
| --- | --- |
| QVQLVESGGGLVQAGGSLRLSCAASGFTFLGYVMGWYRQAPGKEREFVADITESGGRTYYADSVKGRFTISRDNAKNTVYLQMNSLKPEDTAVYYCAAELSYWGYYYSFDYWGQVTQVTVSS | low polyreactivity |
| QVQLVESGGGLVQAGGSLRLSCAASGFTFLHNAMGWYRQAPGKDRELVAAISYSGGSTYADSVKGRFTISRDNAKYTVYLQMNSLKPEDTADYYCNADYSSQDNFDYWGQGTQVTVSS | low polyreactivity |
| QVQLVESGGGLVQAGGSLRLSCAASGFTFLKNAMGWYRQAPGKERELVAAITGSGGSTYYADSVKGRFTISRDNAKNTVYLQMNSLKPEDTAVYYCNVRRGLRAYEYWGQGTQVTVSS | high polyreactivity |
| QVQLVESGGGLVQAGGSLRLSCAASGFTFLPYVMGWYRQAPGKERELVAAISSSGGSTYYADSVKGRFTISRDNAKNTVYLQMNSLKPEDTAVYYCAKEIGVRRRDYEDYEYWGQGTQVTVSS | low polyreactivity |
| QVQLVESGGGLVQAGGSLRLSCAASGFTFLQYAMGWYRQAPGKERELVATISSGGSTYYADSVKGRFTISRDNAKNTVYLQMNSLTPEDTAVYYCNAEEHFHTYVLHFRPYYVRHDYWGKGTQVTVSS | low polyreactivity |
| QVQLVESGGGLVQAGGSLRLSCAASGFTFLTYAMGWYRQAPGKERELVAAIDSGDSTKYADSVKGRFTISLDNAKNTVYLQMNSLKPEDTAVYYCNASRRYHVRAPYDYWGQGTQVTVSS | low polyreactivity |
| QVQLVESGGGLVQAGGSLRLSCAASGFTFLYYAMGWYRHAPGKERELVAAITTGSSTNYADSVKGRFTISRDNAKNTVYLQMNSLKPEDTAVYYCAAEYYYRVWYGHYYEYDYWGQGTQVTVSS | high polyreactivity |
| QVQLVESGGGLVQAGGSLRLSCAASGFTFLYYDMGWYRPAPGKERELVAAITSSGTSTYYADSVKGRFTISRDNAKNSVYLQMNSLKPEDTAVYYCAVLYTYAGRHRYGYWGQGTQVTVSS | high polyreactivity |
| QVQLVESGGGLVQAGGSLRLSCAASGFTFNDYAMGRSRQAPGKERELVAAIDWSGGRTYYADSVKGRFTISRDYEKNTVYLQMKSLKPEDTAVYYCAAVLYSRLYWYSLDYWGQGTQVTVSS | low polyreactivity |
| QVQLVESGGGLVQAGGSLRLSCAASGFTFNFYAMGWYRQAPGKERELVASITSSGARTYYADSVKGRFTISRDNAKNTVYLQMNSLKPEDTAVYYCAARVYRYSASRAYDYWGQGTQVTVSS | high polyreactivity |
| QVQLVESGGGLVQAGGSLRLSCAASGFTFNGNAMGWYRQAPGKERELVAAISYSGGSTYYADSVKGRFTISRDNAKNTVYLQMNSLKPVDTAVFYCAADRTAYSVRAFTKDHSGHDYCGQGTQVTVSS | low polyreactivity |
| QVQLVESGGGLVQAGGSLRLSCAASGFTFNKNPMGWYRQAPGKEREMVAAITSSGGSTYYADSVQGRFTISRDNAKNTVYLQMNSLKPEDTAVYYCAAYPQAFMADYEYWGQGTQVTVSS | low polyreactivity |
| QVQLVESGGGLVQAGGSLRLSCAASGFTFNKYAMGWYRQAPGKERELVAAISSSGGSTRYADSVKGRFTISRDNAKNTVYLQMNSLKPEDTADYYCAVYVTSDSGWWLYDYWGQGTQVTVSS | high polyreactivity |
| QVQLVESGGGLVQAGGSLRLSCAASGFTFNKYAMGWYRQAPGTERELVAAISSRGGSPYYADSVKGRFTISRDNAKNTVYLQMNSLKPEDTAVYYCAVYTIGYLAWYQKFDYWGQGTQVTVSS | high polyreactivity |
| QVQLVESGGGLVQAGGSLRLSCAASGFTFNRYDMGWYRQAPGKERELVAAITGGSGSTYYADSVKGRFTISRDNAKNTVYLQMHSLKPEDTAVYDCAARRYRLSTPEFNYWGQGTQVTVSS | high polyreactivity |
| QVQLVESGGGLVQAGGSLRLSCAASGFTFNWYTMGWYRQAPGKERELVAAIRGSGSRTYYADSVKGRFTISRDNAKNTVYLQMNSLKPEDTAVYYCATDYGLYSTWGRYYRYRYDYWGQGTQVTVSS | high polyreactivity |
| QVQLVESGGGLVQAGGSLRLSCAASGFTFNYNAMGWYRQAPGKERELVAAISRSGGRTYYADSVKGRFTISRDNAKNTVYLQMNSLKPEDTAVYYCAADSRTNGYDYWGQGTQVTVSS | high polyreactivity |
| QVQLVESGGGLVQAGGSLRLSCAASGFTFNYNTMGWYRPAPGKERELVARISRSGGRTYYADSVKGRFTISRDNAKNTVYLQMNSLKPEDTAVYYCNTDYYGVRHRYDYWGQGTQVTVSS | high polyreactivity |
| QVQLVESGGGLVQAGGSLRLSCAASGFTFNYYAMGWYRQAPGKEREFVAAISYGGGDTYYADSVKGRFTISRDNAKNTVYLQMNSLKPEDTAVYYCNARFRKRAYRYDYWGQGTLVTVSS | high polyreactivity |
| QVQLVESGGGLVQAGGSLRLSCAASGFTFNYYAMGWYRQATGKERELVAAIDSGGNTYYADSVKGRFTISRDNAKNNVYLLLNSLKPEDTAVYYCDAYSDYQYDYWGQGTQVTVSS | low polyreactivity |
